Assays:
[1] = target: endothelial cell protein C receptor (EPCR) (human) (UniProt Q9UNN8); experiment: flow cytometry, labelled active-site blocked protease on endothelial cells
[2] = target: endothelial cell protein C receptor (EPCR) (human) (UniProt Q9UNN8); experiment: flow cytometry, fluorescently labelled protease on endothelial cells
[3] = target: AP-PAR1 (PAR1 with an N-terminal alkaline phosphatase tag) (UniProt P25116)
[4] = target: endothelial cell protein C receptor (EPCR) (human) (UniProt Q9UNN8); experiment: binding to EPCR; reference is the natural ligands of EPCR
[5] = target: endothelial cell protein C receptor (EPCR) (human) (UniProt Q9UNN8); experiment: binding to EPCR on endothelial cells; reference is wild type
[6] = target: endothelial cell protein C receptor (EPCR) (human) (UniProt Q9UNN8); experiment: cell-based or functional assay
[7] = target: PAR1^WT/β-11 (PAR1 with the GFP 11th β-strand fused to its C-terminus) (UniProt P25116); experiment: cell-based or functional assay
[8] = target: endothelial cell protein C receptor (EPCR) (human) (UniProt Q9UNN8); experiment: binding to EPCR on endothelial cells; reference is wild type APC
[9] = target: T1, AP-PAR1 (PAR1 with an N-terminal alkaline phosphatase tag), P25116
T1 chain: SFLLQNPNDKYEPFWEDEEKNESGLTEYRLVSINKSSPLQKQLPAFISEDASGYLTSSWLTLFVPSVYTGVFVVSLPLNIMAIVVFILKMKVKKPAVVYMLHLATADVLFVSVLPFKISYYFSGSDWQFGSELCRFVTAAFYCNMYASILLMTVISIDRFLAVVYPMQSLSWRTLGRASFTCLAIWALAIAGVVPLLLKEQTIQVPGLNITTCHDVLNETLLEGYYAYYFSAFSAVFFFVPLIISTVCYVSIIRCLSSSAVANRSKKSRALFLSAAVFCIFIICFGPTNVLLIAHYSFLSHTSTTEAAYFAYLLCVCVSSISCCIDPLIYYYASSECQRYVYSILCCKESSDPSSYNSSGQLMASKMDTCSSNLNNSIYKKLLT

Chain of UniProt Q9UNN8 (Q9UNN8 18-238): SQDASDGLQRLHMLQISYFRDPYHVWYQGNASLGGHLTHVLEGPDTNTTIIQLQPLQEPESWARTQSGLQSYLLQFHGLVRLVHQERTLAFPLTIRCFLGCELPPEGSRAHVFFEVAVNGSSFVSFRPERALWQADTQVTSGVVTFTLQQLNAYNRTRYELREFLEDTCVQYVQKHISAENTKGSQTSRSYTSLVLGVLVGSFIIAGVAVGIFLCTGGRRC

Molecule: P-APC^CIDR (APC^CIDRα1.4 active-site blocked with biotinylated PPACK) (enzyme)
- concentration at which cell binding was still clearly visible [1]: < 0.3 nM
- lowest concentration tested at which bound protease was present [2]: 0.1 nM

Molecule: wild type activated protein C (APC), proteolytically active
- PAR1 proteolysis (release of alkaline phosphatase tag into the supernatant) [3]: APC^CIDR cleaves PAR1 with comparable activity as APC

Molecule: APC^CIDRα1.4 (truncated human activated protein C fused to the PfEMP1 CIDRα1.4 HB3var03 domain), proteolytically active (enzyme)
- fold higher affinity than its natural ligands [4]: < 100 fold
- fold increase in affinity compared to wild type [5]: > 100 fold
- β-arrestin 2 recruitment to activated PAR1 in HEK 293T β-arrestin 2 reporter cells [6]: 3 fold
- β-arrestin 2 recruitment to PAR1 (GFP formation by flow cytometry) [7]: > 2 fold
- fold enhanced affinity compared to wild type APC [8]: < 100 fold

B1: APC^CIDRα1.4 (truncated human activated protein C fused to the PfEMP1 CIDRα1.4 HB3var03 domain), proteolytically active (protein)
chain: MRLAVGALLVCAVLGLCLPDCGVECKNETCTPKTVIYPDCGKNEKYEPPGDAKNTEINVINSGDKEGYIFEKLSEFCTNENNENGKNYEQWKCYYDNKKNNNKCKMEINIANSKLKNKITSFDEFFDFWVRKLLIDTIKWETELTYCINNTDVTDCNKCNKNCVCFDKWVKQKEDEWTNIMKLFTNKHDIPKKYYLNINDLFDSFFFQVIYKFNEGEAKWNELKENLKKQIASSKANNGTKDSEAAIKVLFNHIKEIATICKDNNTNEGCGDQCLVLPLEHPCASLCCGHGTCIDGIGSFSCDCRSGWEGRFCQREVSFLNCSLDNGGCTHYCLEEVGWRRCSCAPGYKLGDDLLQCHPAVKFPCGRPWKRMEKKRSHLKRDTEDQEDQVDPRLIDGKMTRRGDSPWQVVLLDSKKKLACGAVLIHPSWVLTAAHCMDESKKLLVRLGEYDLRRWEKWELDLDIKEVFVHPNYSKSTTDNDIALLHLAQPATLSQTIVPICLPDSGLAERELNQAGQETLVTGWGYHSSREKEAKRNRTFVLNFIKIPVVPHNECSEVMSNMVSENMLCAGILGDRQDACEGDSGGPMVASFHGTWFLVGLVSWGEGCGLLHNYGVYTKVSRYLDWIHGHIRDKEAPQKSWAP
- PAR1 proteolysis (release of alkaline phosphatase tag into the supernatant) [9]: APC^CIDR cleaves PAR1 with comparable activity as APC

Reference: patent US20250066436A1
